# Experimental data as given in the DeepSol protein solubility set.
# Experiment: soluble on expression in E. coli; label from the status in PepcDB or PDB records
row,Sequence,soluble on expression in E. coli
1,MQDGESNFPLLLLPENAKKHVLRTMDVDFLLSLSFCSKRTKHIVQSLKLKFEHFKMDLLGKTKLMINFRSTTILLVFNALYGDKAWKDVFRTVVSTGPPNARYYNTNFFKSFGWERKELAVEDTIYHIFDILNTNVIDVFLDCNNRNMFFFEKLSQTFRERNVRRISLGSMQNPIFNSFSYLENSLRNQFLELEGLAYLRELYRTLQEEHKILIQNFNYLNPNLPSTGKMTLNELLLINSSHITLTFNEMALNEKSLNIFLKHWINGSNKKLDYMYLSGFTQLGETSVAIEAILKRIVHKEASHDRLFKKFYDPGSNGNIGDNSSSLKHGFDIISNDGTPATASIRISEGVIYFQMKVWDQ,not soluble
2,MQDILFDFISTYISLTEDEKNALLSLDLFRSVPKGTILLKEGQKSQESYFVLKGCIRIYYIIDGEEKTTAFYTEMDALTPPCVIHNAPSEYFISCIEDSILTVSNLEMEAEINSKFPKFELMCRMLSEELLAKQQIDFDAFKTSSPEQRYLNVLQNRPDLIQRVPQHQLASFLGIKPQSLSRLRARIVDKKS,not soluble
3,MQDIRDLTAVLRSKTPIVVIETYEEYRVVDMLKRIANVLYQPLFTWSITQGLTRVDKPMPAQKFNTEPGDILGQIKATTQQGIYVLCDFHPFVVEAPKNVRLLKEIALEYDALQHTLVLVSHAFEIPPEIKRYCAYFQLTLPSTSQLENLIYLEVDKVRTQGIPLNVDDKAVVKLAENLRGVTLDDARRLIHKAIVDDGAITHSDVDLINKAKFQLLDLNGILQFEYDTSDFSQIAGLHNLKKWLKQRAPAAHSPQGVSAAAQIDTPKGVLLLGVQGSGKSLAAKAVAGVWQRPLLRLDMGALYNKYIGETEKNLRNALELADMMSPCILWIDEIEKGLSGSNSDQGISTRILGTLLTWMAERKSEVFVVATANDIQALPPELMRKGRMDEIFFVDLPDETIRKAIFLIHCQRRGIDVSRLDLAQLSRHSQGFSGAEIEQAVIAAMYSARSLGRTLDQDLLLEELTKTRPLSIVMGDKINALRQWAAGRTVNAHELEHHHHHH,soluble
4,MQDRCPHQDHRSIPTIMPDLEPDTVSALEAPEFAPAQFVRWFREVAPYVHAFRGKTFVVAFGGELVQAGALNVLVQDLSLLSALGIHLVLVHGSRPQVNEQLRLKGYTQQFGRGLAPTDPAALECAKEAAGEIRLDIEAAFSQGLPNTPMSHSHIRVLSGNFVTARPTGVVDGIDYKHTGQVRKIDVDALKFAIEQGSVVLLSPLGFSPTGDAFNLAMEDLATSVAVALRAEKLIFLSGEPGVLDGNGAVDTELARVDADALLARGELDEDTTYFLQHASLAVKRGVARAHLVPYALDGSVLLEIFTHDGVGTMVVEDTLDDLRAATLDDVGAILSLIEPLETDGTLVPRPRSAIERDVERFTVLEHDGVIYGCAALYPFPEDQMAEMACLIVHPEWQGSGEGEILLRHMESRARASGARRLFVLTTRTSHWFMKRGFVRGGVADLPRDKQNNYNRSRNSLVFIKKL,not soluble
5,MQERDKEPLQERFFRPHFLQAPGDMVAHEGRLCRLDCKVSGLPPPELTWLLNGQPVLPDASHKMLVRGTGVHSLLIDPLTQRDAGTYTCVATNKTGQNSFSLELTVVAKEVKKAPVILEKLQNSGVPEGHPVRLEGRVIGMPPPVFYWKKDNETIPFTRERISMHQDTTGYVCLLIQPAKKSDAGWYTLSAKNEAGIVSCTARLDIYAQWHQQIPTPISIRPSGSRYGSLTSKGLDIFSAFSSVESTMLYSCTSRSVVESDEL,not soluble
6,MQERHTEQDYRALLIADTPIIDVRAPIEFEHGAMPAAINLPLMNNDERAAVGTCYKQQGSDAALALGHKLVAGEIRQQRMDAWRAACLQNPQGILCCARGGQRSHIVQSWLHAAGIDYPLVEGGYKALRQTAIQATIELAQKPIVLIGGCTGSGKTLLVQQQPNGVDLEGLARHRGSAFGRTLQPQLSQASFENLLAAEMLKTDARQNLRLWVLEDESRMIGSNHLPECLRERMTQAAIAVVEDPFEIRLERLNEEYFLRMHHDFTHAYGDEQGWQEYCEYLHHGLSAIKRRLGLQRYNELAARLDAALTTQLTTGSTDGHLAWLVPLLEEYYDPMYRYQLEKKAEKVVFRGEWAEVAEWVKAR,soluble
7,MQEVHKWHNDLTGKKLVENLKKNLFDAYYFEDGSEVSKYIMNYVGTGTKIGFGGSVTVQSLNIAEQAMEKGAVILDHNDASLTQEEKMDIMRQQLTSDIFISSTNAITASGELVNIDGVGNRVSAIVFGPKKVIIVVGLNKLCKDVETAFERIKMQAAPKNMKRLGFLNPCIKTGYCVNCDAETRACRIYSVIKRRPMLTDMTVLVVGKSLGFLEHHHHHH,soluble
8,MQFEKMITEGSNTASAEIDRVSTLEMCRIINDEDKTVPLAVERVLPDIAAAIDVIHAQVSGGGRLIYLGAGTSGRLGILDASECPPTYGVKPGLVVGLIAGGEYAIQHAVEGAEDSREGGVNDLKNINLTAQDVVVGIAASGRTPYVIAGLEYARQLGCRTVGISCNPGSAVSTTAEFAITPIVGAEVVTGSSRMKAGTAQKLVLNMLSTGLMIKSGKVFGNLMVDVVATNEKLHVRQVNIVKNATGCSAEQAEAALIACERNCKTAIVMVLKNLDAAEAKKRLDQHGGFIRQVLDKELEHHHHHH,soluble
9,MQFHIDDMTCGGCASTVKKTILTLDANATVRTDPATRLVDVETSLSAEQIAAALQKAGFPPRER,not soluble
10,MQFNYDVIVVGAGHAGCEAAAAAAKLGSQVLLITPDMNKIAQMSCNPAVGGIAKGQIVREIDALGGRMGIVTDATAIQFRMLNRSKGPAMWSPRAQSDRMRFMEAWRDIVEHEPNLYMWQDSVRCLSIRQGAVAGVVTALGVEFQARTVVLTTGTFLGGVMHFGERMIEGGRIAEPAFHGITEQLRDLGFRTDRMKTGTPARIDGRSIDFSLTTEQSGEEDHHRFSYMDTPRRVLRQRSCYALYTNPECHEILSKGLDRSPLYNGQIQSIGPRYCPSIETKIVTFADKEMHQLFLEPEGETSNEFYLNGFSSSLPLEIQLEALKAIPALRHVHIYRPGYAIEYDFFDPTQLRHTLETKPVKGLFFAGQINGTTGYEEAAGQGLIAGINAHLHCHGAGEFTLGRDEAYIGVLIDDLVSKGVDEPYRMFTSRAEYRILLRQDDADMRLTPKAEAIGLADSRRSELLREKQVFRDKLIDFTHKFSLKPDLINPHLESAGHLPLKQGIKLYDLLLRPQIGMNEVCSMVPSLQRIVEEIPASRREEIVEAAEILIKYDGYIKRERALADKINRLESIRLPQHVDYMQMQSLSTEARQKLTSIRPETIAQASRIPGVSPHDVSILLVLCGR,not soluble
11,MQFQRARSDKQKNIRMSEIVNATINLYESLQYDKITLALIAKQLSFSRANLYKYVSTKEEIFLLIISGDIENWSKEVVKFFDKYDALSAEEFCKLWSELLYRHKRIIELFCILNTIIARNVSAEKLAAFKKQIHKDFTRTKKVVKRFFPFMSKEQLKFFIEYQMKYAVGVYPATIINDVQKKASELSGIPSNVKDFESSFSKFLMVILNGIEITI,not soluble
12,MQFSKMHGLGNDFMVVDAVTQNVYFSPELIRRLADRHTGVGFDQMLVVEPPYDPELDFHYRIFNADGSEVSQCGNGARCFARFVRLKGLTNKREISVSTQTGRMILSVTEDEQVCVNMGEPDFEPQTVPFRAAKAEKTYILRAAEHTVLCGVVSMGNPHCVMQVDDVSVANVALLGPVLENHERFPERANIGFMQVVSRDHIRLRVYERGAGETQACGSGACAAVAVGVVQDLLNENVHVELPGGSLHIRWQGPGHPLYMTGPATHVYDGFIHL,not soluble
13,MQGKDNYQEQQEINSTDEEGMIFQLADTTIQACNAAAERIIGYKNEQILGKTPFKPPWQIVHEDGTIFTPETVPPIVALQTGKPCKNVVMGLYQPTGQLVWLLLNSQPLFQTNKSTPYAVVTTFTDFTKVKCRQSRSDACITNNKKLIVTWNQDQAVEISPNTDKQKLNQPVAEPISDDCTKAFLSMQNHILELIATGNSLSEILEKLAQSIEAQLAEVFCSIMLLNDTGTKLYPGVSSSLPEKYIQELKNGVPVGADVGSCGTSAYTKQTVIVSDIASDHKWVKYRDLTLTNNLKACWSTPILDSQGHVLGTFALYYPTVRIPQKSDLQLIERASHLAGVAIERQRWQLALQQSEYQLRLMTETIPQQVWTAQPNGLVDYYNQRWCDFTGKTQEQLKTESWEQIIHPEDLPKVEELWAKAVQTGSDYEVETRMLSGSGEYHWILGQARPLRNQQGQIVKWYGTNTDITDHIQAREALRESELNFRTLADTMPQMIWTAKGDGWLEYCNQRWLDYTGMTLEETQGWGWQPVLHPDDAQICIDIWSESVRTGQNYQIEYRLRRARDGQYRWHLGRAFPLRNQKGQIIKWFGSCTDIDDHKRSEEALRNALQEKQAAYEAAETANRVKDEFLAILSHELRTPLNPILGWSQLLKTGKLDKDKTDEALKSIERNAKLQVDLIDDLLDVSRILRGKLTLNVTTVNLADIISAALETMSLAASVKQIAVQTLIEPNIGKVRGDPARLQQIVWNLLSNAIKFTPQGGEVVVQLEQIGSMAHIIVSDQGKGINRKFLPHIFEHFRQEDGSTTRKFGGLGLGLAIVRHLVELHGGTVEADSPGEGQGTTLKVILPLISSLPVTVTNGQFEDVALSLKGIKILVVDDDVDSLAFVKVVLELYEATVTTAASAPEALQIGVQLKPDVLISDIGMPEMDGYELLRRMRALSSDLGGDIPAVSKAIPKAIALTAFAGELDEQQAMAAGFQIHIPKPVEPEALAAAVAQVLKINV,not soluble
14,MQHLEAVRNILGDVLNLGERKHTLTASSVLLGNIPELDSMAVVNVITALEEYFDFSVDDDEISAQTFETLGSLALFVEHKLSH,soluble
15,MQIFRDVSKLLVERVDPKILNLFRLLGKFGDEVNMPVYVVGGFVRDLLLGIKNLDIDIVVEGNALEFAEYAKRFLPGKLVKHDKFMTASLFLKGGLRIDIATARLEYYESPAKLPDVEMSTIKKDLYRRDFTINAMAIKLNPKDFGLLIDFFGGYRDLKEGVIRVLHTLSFVDDPTRILRAIRFEQRFDFRIEETTERLLKQAVEEGYLERTTGPRLRQELEKILEEKNPLKSIRRMAQFDVIKHLFPKTYYTPSMDEKMENLFRNIPWVEENFGEVDRFYAVLHVFLEFYDDESWKEVRDRYSLRRNLINEIRHVEKSAPALLEMLSERVPASFVYPLVKGVSNETICHFLAYLSGEKEGLFKSYLLKIKNTKLEKINGEYLIRKGITSGKIIGEVLEKILMKKLDGDTRDEEEILEEVLASLETEGKLAAALEHHHHHH,soluble
16,MQLDVYGYVVETLYLAHQSGVARCGDTAVLHQRLVEHLAERWQMPDEGIWEVRGERRHFVHSKVMAWAVVDRTIRLVEAGALDAGLCALMELREAIRHEVCTRGFEP,not soluble
17,MQLNKVLKGLMLALPVLAVAACSSNKSANNDQSGMGAGTGTENGSNLSSEEQARLQMQELQKNNIVYFGFDKYDIGSDFAQMLDAHAAFLRSNPSDKVVVEGHADERGTPEYNIALGERRASAVKMYLQGKGVSADQISIVSYGKEKPAVLGHDEAAFAKNRRAVLVY,not soluble
18,MQNFTLHTPTKVLFGTGQIAQLTQEIPADARILITYGGGSIKQNGVLDQVHQALKGFDFLEFGGIEPNPTYETLMKAVELCRTEGINFLLAVGGGSVLDGTKFIAAAVNYPQDPWHILETTGRDITEALPMGSVLTLPATGSEANNGAVISRRSTGDKQHFFSPHVQPLFAVLDPVVTYTLPPRQVANGVVDAFVHTIEQYLTYPVDAKVQDRFAEGLLLTLIEEGPKALKDPENYNVRANIMWSATMALNGLIGAGVPQDWATHMLGHELTARHGLDHAQTLAVVLPALLVAKKQQKRAKLLQYAERVWGLREGSEDQRIDAAIEATRHFFESLGVATRLSAYKLDGSSIPDLIKKLEEHGMTKLGEHSDITLADSKRIYEAAV,not soluble
